Assay results as given in paper PMC7804450.

Target: T1, tuberous sclerosis complex 1 (TSC1), human, subunit of the purified TSC complex (human), Q92574
T1 chain: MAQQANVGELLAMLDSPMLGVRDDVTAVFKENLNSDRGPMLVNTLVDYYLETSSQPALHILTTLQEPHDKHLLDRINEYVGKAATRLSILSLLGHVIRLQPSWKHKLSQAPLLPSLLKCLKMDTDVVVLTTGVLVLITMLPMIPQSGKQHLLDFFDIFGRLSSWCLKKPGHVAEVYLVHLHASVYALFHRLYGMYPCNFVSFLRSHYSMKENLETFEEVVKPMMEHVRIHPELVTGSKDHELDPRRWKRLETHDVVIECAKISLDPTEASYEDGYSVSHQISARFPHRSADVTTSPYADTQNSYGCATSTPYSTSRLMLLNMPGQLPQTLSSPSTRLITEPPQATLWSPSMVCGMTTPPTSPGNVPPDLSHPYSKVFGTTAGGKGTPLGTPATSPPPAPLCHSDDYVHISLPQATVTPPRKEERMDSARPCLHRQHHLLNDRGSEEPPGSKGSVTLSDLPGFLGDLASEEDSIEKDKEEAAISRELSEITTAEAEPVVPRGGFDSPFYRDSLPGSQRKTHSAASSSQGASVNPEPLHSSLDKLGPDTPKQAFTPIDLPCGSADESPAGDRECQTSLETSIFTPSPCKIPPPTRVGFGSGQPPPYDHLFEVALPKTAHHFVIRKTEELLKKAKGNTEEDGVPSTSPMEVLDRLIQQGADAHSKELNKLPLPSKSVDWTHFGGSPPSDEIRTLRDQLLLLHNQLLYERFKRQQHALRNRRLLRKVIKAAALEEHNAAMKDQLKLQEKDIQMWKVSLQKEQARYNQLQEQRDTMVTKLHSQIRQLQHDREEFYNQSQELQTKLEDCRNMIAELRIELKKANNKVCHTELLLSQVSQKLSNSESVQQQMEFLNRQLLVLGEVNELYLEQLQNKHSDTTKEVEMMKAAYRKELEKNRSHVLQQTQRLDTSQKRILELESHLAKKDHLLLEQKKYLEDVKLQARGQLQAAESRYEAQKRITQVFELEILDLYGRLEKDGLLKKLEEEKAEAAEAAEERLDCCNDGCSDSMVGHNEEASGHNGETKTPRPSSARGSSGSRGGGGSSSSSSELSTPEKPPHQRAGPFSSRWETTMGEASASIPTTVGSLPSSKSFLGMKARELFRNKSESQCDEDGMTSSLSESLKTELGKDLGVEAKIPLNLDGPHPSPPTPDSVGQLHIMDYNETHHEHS
Experiment: cryo-EM structure; human TSC complex (TSC1, TSC2, TBC1D7) co-expressed in Expi293F, purified, cross-linked by Grafix (glutaraldehyde); single particle reconstruction, 4.4 Å overall, core 3.6 Å, wings 3.9 and 4.1 Å
Details: remark: other sources report otherwise

B1: tuberous sclerosis complex 1 (TSC1), human, subunit of the purified TSC complex, Q92574 1-1164 (natural protein)
chain: T1 chain
Q: B1 was tested. Which stoichiometry N did it give?
A: 2
